Measured values as given in US20250032566A1 (YEDA RESEARCH AND DEVELOPMENT, published 2025).

Columns and labels:
[1] = target: T1, ThsB (Thoeris defense system TIR-domain protein) (UniProt J8G8J6 1-192); assay: His-tag pulldown on Ni-NTA magnetic beads from E. coli lysate co-expressing TAD1-His, ThsA and ThsB; SDS-PAGE
T1 construct: Expressed from pBAD as a ThsA-ThsB operon in E. coli MG1655; also called Thoeris (ThsA/B)
T1 sequence: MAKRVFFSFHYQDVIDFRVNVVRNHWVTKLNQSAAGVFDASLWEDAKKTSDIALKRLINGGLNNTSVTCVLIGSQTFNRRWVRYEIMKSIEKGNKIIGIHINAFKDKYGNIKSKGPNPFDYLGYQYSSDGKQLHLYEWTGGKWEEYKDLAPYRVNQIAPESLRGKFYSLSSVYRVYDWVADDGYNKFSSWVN

[2] = target: T2, ThsA (Thoeris defense system protein) (UniProt J8G6Z1 1-476); assay: as above
T2 construct: Expressed from pBAD as a ThsA-ThsB operon in E. coli MG1655; also called Thoeris (ThsA/B)
T2 sequence: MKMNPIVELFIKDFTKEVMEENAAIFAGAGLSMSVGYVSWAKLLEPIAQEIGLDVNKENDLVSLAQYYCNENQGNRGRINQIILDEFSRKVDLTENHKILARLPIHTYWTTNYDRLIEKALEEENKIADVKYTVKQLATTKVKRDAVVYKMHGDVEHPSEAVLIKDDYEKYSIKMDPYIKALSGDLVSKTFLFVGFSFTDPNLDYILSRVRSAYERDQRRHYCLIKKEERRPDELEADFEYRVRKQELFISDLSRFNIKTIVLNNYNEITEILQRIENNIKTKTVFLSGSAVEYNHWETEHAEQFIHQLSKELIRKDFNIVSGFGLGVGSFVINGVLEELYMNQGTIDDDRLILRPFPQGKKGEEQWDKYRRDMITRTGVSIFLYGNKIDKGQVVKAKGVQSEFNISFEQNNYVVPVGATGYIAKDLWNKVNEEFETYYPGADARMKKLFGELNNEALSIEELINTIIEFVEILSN

B1: TAD1 (Thoeris Anti Defense 1) from phage SBSphiJ7 with a C-terminal His-tag (other)
chain: MRELKHELLPTRHTQVFHEDKDKMEFNAPHHFVVVPAGSPLVDQQIHYGRGGNSKKVTVKDFAGKLATVNFQLGPVTEHGANGVMNEDLIAMVITRLQYFQNSEFNCRENAMAITKLEEALMWLNKRTAEREQRGVEGTHEK
notes: Co-expressed with ThsA and ThsB in E. coli MG1655 and pulled down on Ni-NTA magnetic beads; also called TAD1-His; His-TAD1; not shown: C-terminal His-tag
Q: Which results are given for B1?
A: binding result [1]: no binding; binding result [2]: no binding
